In a protein production outcome set (Wang et al. 2014):

Assay: label from the status in PepcDB records

## MVSCSNQQTQTKAITVSDTTLLSAEEFSQKIKKEPNALILDVRTPEEFSEAHIANATNVNWKDNFASGITEVNKNQPVLVYCLSGGRSASASDYLRKNGYTQVYELQGGLLKWQASNFEVVADTVTAAQDSGMTLQQFEALLVTDKYVLIDFYATWCGPCKMMEPALEDIAATMSDKVIVVRIDVDKNEELSKHFEVESLPTVQIYKNKKLVWEDIGYKTKKQLVSQLK
  protein production: failed

## MQSATDVAEYCKYDGFDGLKRAISLSDEEILNELDIAHLRGRGGAAYPLGKKWRHLYHAKGTTKYIVCNADEGEPGTFKDKVLLSEDPLSVIEGMIIAGYLFSAKAGYIYMRGEYRRIQKTFQEALDNARQAGFLGENILGIEGFNYDITIISGAGAYICGENSALLNSIEGKTGRPRVKPPHLADVGLYLQPTLVNNVESFASVPVILREGGQAFLEMGTADGGGTKLICLSGHIKNRGLYEVNLGTPLEEIIYGEQYGGGSATGRALKFIHFGGQSGPIGAVATLRDCLYSYEDLWAHDLSVGSGAIVVMDDSVNVVDYLVHVAAFFAHESCGKCTPCRLGTTRILELLSKFNRNEATASDLPRLEKMLTHVTRLSACGLGQSVANPMKSALALFPEEFETTAETEIYATSKGGWLEHHHHHH
  protein production: not failed

## MSSIGYSRRFRLFRRGEVTVLEVMAGQKAYPDTLRYLLVPEGRPQPSGFVGYTVIRTPVKRIAVFSTTHIGFLDMLGRSDGIIGVSRPEFVNTPAVRSRIRSGAIKAIGMPFSPDVEALLNLEPDLVIAPALPAARKTDYQALVQAGIPVLVVAEWLEPSPLGRAEWIKLFGALVGKEKLARERFAAIESSYLKIAALSRNLPNRPTVLTGLPVKDAWYVPTGGSYVAAMLRDAGASYHWRDLPGTGSVPLTIEAVWPVALEAEYWLNTGTVSTLDELLAVDSRFGQMRSVRERRVWNNNRLVNAAGGNAYWESGVVRPDLILKDLVMILHPGLLRAHGIGEGELTFFQEVKLEHHHHHH
  protein production: not failed

## SGCIQSITCKARIRRENIVVYDVCATIDQCPTRIEETSPIVLRYKTPYFKASARVVMPPIPRHETWVVGWIQACNQMEFFNTYSDLGMSSWELPDLREGRVKAISDSDGVSYPWYGNTTETVTLVGPTNKISRFSVSMNDNFYPSVTWAVPVSDSNVPLLTRIKRDQSFTTWLVAMNTTTKEKIILQTIKWRMRVDIEVDPLQLLGQRARLVGRTQQEQPRILSRMEPIPPNALVKPNANDAQVLMWRPKRGPPLVVIPPK
  protein production: not failed

## MQNYKSGELALLDVPVPGCKPGGVLVRTAYSLISTGTELMKVSEAGMSMLGKARSRPDQVAKVVQSVATNGVPATYRKVMGKLDSYTPLGYSLCGVVEQVGEGIDDVKAGDLVACAGNEHALHAELNWVPRNLYAPVPDGLAARDAAFGTVGSIALQGVRQGESRLGETALVIGLGLIGQLVVQLLVASGVRVVGADPDAERCELAERLGAAACGDPASPAVESAVVELTDGHGVDQVYLAAGGGSNQPVELAARLCRDRGRVVDIGKCRLDLPWNAYYEKELDVRFSRSYGPGRYDPEYELEGRDYPIGYVRWTERRNLACFLDLVARGRVDVAPLITRTADFDDAVETYRSLQDGALKAVAVLFRYPGQPDAEAPAGAPAVTVPGVRRGAGAAAPARAARTPVRLAFVGAGNYATSMLLPHLARREGVELSTVVTTTALSAANAQRKFGFGEATTDLDAVLGDASVDAVFVVTRHSSHAELTRKALLAGKAVFVEKPLALTGEELTGVLAAVEESGNDRVQVGFNRRFAPLLQEARKRFGARTGPASLRYLVNAGRLDHGSWYLQQGTEGSRFAGEGGHFVDTASWLLGADPVSVYALAPSSNEDLQVVLGYPDGSTATLSYVTTGAAGFPKETLDLVADGKVLQLDDFVRSSVYDGRKRWVSSRLPKARDKGQSAELAAFVRAVRTGGPMPVPLESLVATTAATLAVRTALAAGAPVGLAEAR
  protein production: failed

## MKKIKALALFSGGLDSLLSMKLLIDQGIEVTALHFNIGFGGNKDKREYFENATAQIGAKLLVCDIREQFFNDVLFKPKYGYGKYFNPCIDCHANMFRNAFYKMLELNADFVLSGEVLGQRPKSQRKEALNQVRKLVREVGEEARFDPVLDRTQAGGKKPQFLDELLLRPMSAKLLEPTFMEKKGFVDREKLLDVSGRGRSRQLQMIKDYGLKYYEKPGGGCLLTDIQVSNKIKNLKEYREMVFEDSVIVKNGRYFVLPHNARLVVARNEEENHKLDIQHPLMDKIELLNCKGPLSLVDKNASKEDKELAGRIALGYAKTLKNQAYLIQIGDEKRELYPLDKENAREYLFA
  protein production: failed

## MNPAYRKAMLESEIQKLLMEALQQLRDPRLKKDFVTFSRVELSKDKRYADVYVSFLGTPEERKETVEILNRAKGFFRTFIAKNLRLYVAPEIRFYEDKGIEASVKVHQLLVQLGYDPLKDKEKKEEDKEEE
  protein production: not failed
